Values of other authors, collected in patent US20070184095A1, “OSMIUM COMPOUNDS FOR THE TREATMENT OF PSORIASIS” (priority 2006, published 2007).

efalizumab: humanized monoclonal antibody against the CD11a subunit of LFA-1
patients who developed hemolytic anaemia (human, in vivo): four | patients with immune-mediated thrombocytopenia (platelet counts at or below 52,000 cells/microliter) (human, in vivo): 0.3% | subjects developing antiefalizumab antibodies (human, in vivo): approximately 5% | overall incidence of hospitalization for infections (placebo 1.2): 1.6 per 100 patient-years

Adalimumab
increase in incidence of serious infections (human, in vivo): two-fold | most notable complication (human, in vivo): reactivation of tuberculosis

infliximab: chimeric (mouse-human) IgG1 monoclonal antibody, which binds to and inactivates TNF-α
reported adverse events (small percentage of treated patients): pneumonia, tuberculosis, lymphoma, drug-induced lupus and hepatotoxicity
